± gives the uncertainty stated by the source.
experiment: amyloid nucleation score (Sup35N fusion, yeast selection) (log enrichment); library NNK1; higher = more nucleation; inactive = no reads after selection
Outline: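 Sup35N was fused to peptides of 20 random codons and expressed in psi-negative yeast, which were induced with 100 μM copper sulfate for 24 hours and then grown on medium lacking adenine and uracil for 7 days at 30°C. Plasmid inserts from input and output were sequenced on Illumina. The nucleation score is the DiMSum log enrichment of output over input reads, centred on the mode score of non-aggregating sequences. Sequences with under 100 input reads were left out, and random libraries had three technical output replicates.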

Substance | amyloid nucleation score
FSHDRGYLIFQVIRGHHCFM | 0.277 ± 0.57
SGMFYILPTSPGYAHEVPRR | 0.393 ± 0.35
YTLFWNVEGNLWQTPSVCNL | 0.141 ± 0.95
WKASFIRFWFVAIMFMYNLC | -0.1 ± 0.42
NSDSIGIRVFDV | 0.242 ± 0.99
VFLSCHQSLRVFVACYWHWY | 0.672 ± 0.33
FLEWAPSLNKLHRF | 0.768 ± 0.17
NFMYTYTVTLRRGYGEVSCA | -0.071 ± 0.6
NVTSAR | 0.185 ± 1.1
GGKESLFRCFADRSCFMYI | -0.724 ± 2.4
KFYSMKTSNFWCI | 2.04 ± 0.18
VSRLRSDWNL | 1.43 ± 0.3
HWMFFYRDIFCVCVNSFL | 4.17 ± 0.085
YYRGCTWLAYPEERTALPRM | 0.208 ± 0.27
PGSVDCTVGD | -0.048 ± 0.65
VFNMTYRKIRVTE | inactive
TAMRSHLSVPSNVTLPCIKH | 0.082 ± 0.46
EAGLCSK | -0.316 ± 0.45
YRWSVCCLLVMFWLYDGALL | -0.156 ± 0.8
YSLFAGIG | 0.735 ± 0.85
DFSYYLWGMSV | -0.991 ± 2.4
MGLPVLVINNHTAKNGVTRA | 0.711 ± 0.73
HCSSFNILRMNDNE | 0.398 ± 0.23
KTCSQSEKM | -0.562 ± 0.3
AVIEYR | -0.582 ± 0.32

Substance | amyloid nucleation score
ICVLCC | 1.15 ± 0.62
NRYFRMCFRLWFDPTWSVRA | 0.681 ± 0.85
YILPFFGRHYNRHGVFAGAM | -0.647 ± 0.9
VTVEIAWKMA | 0.054 ± 0.67
HDLHFFHGVAARQNVRRAYR | 0.724 ± 1
LDCINRERYIHFMR | 1.92 ± 0.5
CCFRRVTSRVPGRTMEGNCF | -0.264 ± 1.2
TSRYVFRT | 0.925 ± 0.58
YELDWWSLLQE | 1.12 ± 0.4
GTFSGRKEL | 0.463 ± 0.3
NQILRLMCWTFYFRESSKSY | inactive
GHLSA | inactive
RACLQRWPNMRITCC | -0.005 ± 1.2
MHRYF | -0.286 ± 0.37
NSLCRLSGCCGVLRDLPLVM | -0.232 ± 0.33
SMFASL | -0.229 ± 0.43
YMNWFITGHDVGRYLIQFFV | -1.74 ± 2.4
CQCGMVGVL | -0.005 ± 0.45
LRVYHSYFFSWSSTSLLPAG | 0.219 ± 0.76
IYMCIGWQ | 7.268 ± 0.044
YMASYGNLVGMFDAIQVLIV | 1.08 ± 0.31
DFNYPDSSCLGFKCLNAHWV | -0.731 ± 0.33
GKQGRIQDSVYDWCCCNLSG | 0.255 ± 1.2
GRFGVGVWW | 0.127 ± 0.46
MNYRQLL | 0.177 ± 0.7

Substance | amyloid nucleation score
STSIDVWRSALLRVFGFTIY | 0.171 ± 0.37
MPCRARVRDNSLSWTEHTNC | -0.248 ± 0.62
FLGMAHLCHEEGVRKLGGES | 0.679 ± 0.64
LKSYSTFVIRMNWLGDEGEL | -0.874 ± 0.8
LFCKSPCYFVMLADKMHIWG | 5.07 ± 0.11
DVMLNCCGYCAPGGWVVVFS | 5.33 ± 0.089
GGRNF | -0.696 ± 0.57
FGSQVFTDGHMCMQSGGTWC | 0.223 ± 0.34
LYEDLWFRVREL | 1.11 ± 0.63
VNYTTSQSRRDFPSNRSQSG | 0.715 ± 0.83
AMGTLVIKGRYFYIFSASFG | -1.52 ± 2.4
PAATNAWGWRVPDPGSMIPS | -0.3 ± 0.42
DYVYHKAWKVKGTRAWKESL | -0.266 ± 1.4
ANCFPLCRKNLGRSGVNNVR | -0.452 ± 0.74
LFSSLRRGRHSLPIPLPMNL | 0.013 ± 0.36
MNFDNGDFYWFVTRIISITC | 0.99 ± 0.19
VTFWDPVVLTTPPKLCI | -0.946 ± 0.49
SYLKS | -0.4 ± 0.63
LRSSVDLTRGESYNSGKFFN | 0.435 ± 0.32
FPDNVISIIDFR | -0.235 ± 0.54
YNIALCINSQVRESRRPVGV | 5.24 ± 0.072
MKAVELSPLKYTCLAN | 0.313 ± 0.74
WQHSPTYGYLYIHC | 0.633 ± 0.18
MRWIVWYVIS | -0.859 ± 1.4
SWQPECCTVQTLSSKSEISH | -0.158 ± 1.6

Substance | amyloid nucleation score
KVSYCSSGYLTSLTWRFLLI | 0.888 ± 0.28
GSMLCGEVERMSECKESGGP | -0.354 ± 0.48
NFAWYNSTQFITTCRVTYSE | 1.86 ± 0.17
AGLRIYVVSFILTYGKRFSS | 0.12 ± 0.4
FWDVVKLNGGSGMALFYAGL | 0.145 ± 1
IFNSEVVSSLIRVVSMNMEG | 0.654 ± 0.21
WHFFVKKRVRCDSHSSMQWN | -0.677 ± 0.69
SVFWAWCVADHTIIDQKSSL | 0.391 ± 0.48
GVLLLIQSGNCRWRRSSRAP | 0.344 ± 0.65
SKRATYFFTASLGTQRCLMK | 1.29 ± 0.9
YVVNYYNRQSIGCFVWTWRR | 8.169 ± 0.05
RFNLCNGFMGIAKNCICIWT | 1.41 ± 0.45
MLFGC | -0.003 ± 0.41
LLVGKMCRWNMSYVG | -0.063 ± 0.28
AWLLLEDWFVNRVILICGAK | 0.027 ± 0.27
SLPITLLPKGFATKVFVRVC | -0.127 ± 0.72
SWYLMIKVIETVSGVTGWVG | 2.39 ± 0.12
GTGRVLVIAKALNYCCIS | 6.811 ± 0.054
SIPFGIIMETCENLTDFAVY | -0.74 ± 0.85
DHTHLTTQNDICLMVSFTVE | 2.7 ± 0.096
TCFGL | -0.702 ± 1.2
FWAHMMRIASNYKFSLYL | inactive
YSPDLSRASFCFLWYISSS | inactive
TTSFRHSVYQDYGLSVIDCG | -0.351 ± 0.78
YSMIPKITSKP | 0.028 ± 0.29

Substance | amyloid nucleation score
GSNFTKVCILPSLHRTLLVG | -0.222 ± 1.4
NLSCAE | -0.288 ± 0.71
VIHLSVSWLGMLSGWANLFV | -0.529 ± 0.94
DSRDVNSSLIIRVRVEDGTL | -1.2 ± 1.5
PLTKVFV | 0.167 ± 0.82
TVAFWF | inactive
NNGRLYVTIRLMDINLVVHT | 0.616 ± 0.43
RYMVSCRGGGKWQPPLFDMR | 1.23 ± 0.66
CQFYWLTGPCMRRLRCGSVQ | 0.052 ± 0.36
GFCFNECFLAGV | -0.285 ± 0.59
DTFCQL | -0.147 ± 1.1
QDRYR | 0.156 ± 0.56
NGKWYLLVRGFLAWNKQRCP | -1.03 ± 2.7
RCNAKWL | -0.426 ± 0.77
MVMFHSSFLIDDTWICWNPF | 0.255 ± 0.47
RLSTAMRVEVIGVSCSDARA | -0.033 ± 0.28
YVLSLYTNGRSPSA | 0.203 ± 0.56
CNILVTRFSNSREFNRCTWR | inactive
NLVALNLSNTFPDDV | 0.04 ± 0.82
AMGRLYS | -0.41 ± 0.3
ISGTLGSRVMGLSAWVRVSR | -0.114 ± 0.38
KVYIIFVRGEDAFKLRGAAN | -0.529 ± 1.5
INSNWASLRDRYARIASRSS | -0.372 ± 0.47
YLVWCIESITLGFMGELGAR | 0.199 ± 0.57
ELSVRPCRVLYEHCGYRCEQ | 0.196 ± 0.49

Substance | amyloid nucleation score
YFAAVIRRFGWTDIERSHQC | 0.233 ± 0.79
ALITFSRGWLAPLMGQQMVL | inactive
CNFKIVSWVVNQVLFFSHFA | -1.37 ± 2.1
FGNSCSADSNRYQIKYTMIK | 0.155 ± 0.45
CNITWSFSDRLWY | 0.476 ± 0.27
NNFFITVHSLLIRSSTHMR | 0.015 ± 0.37
EFIGFRLFIQVNSDFM | 1.69 ± 0.23
PSRNLVRVDPFLGIRQMVSS | -0.096 ± 1
YCSTSYRSSHNRSGVWKGTL | 1.62 ± 0.55
KSKLMNKQFSRLTLVSTESR | 3.86 ± 0.13
SAFFYDSFYRMRLSLFIGYG | 0.63 ± 0.55
FHFVGLSVTVVLLSFWGWNT | 0.78 ± 0.52
YLDVLGAFC | -0.214 ± 0.47
NHVSHWMLSSGKASRYHTRR | 0.142 ± 0.66
LNSAVDMGCFVVNLYMLCIY | 4.22 ± 0.059
FGTLCSGDRYVRR | -0.611 ± 0.28
LAVKEL | 0.678 ± 0.54
VVSLNE | 0.915 ± 0.9
FWGWLRPWLLKSSEDPLKLE | -0.617 ± 0.57
SMYKMDMSLSTWCWFAWHDH | -0.37 ± 0.45
NVGQPRNVVDSIQ | 0.67 ± 0.23
FTNNVLNINVRG | 0.253 ± 1.2
SSFDMRDILYLSSNILRSRM | -0.505 ± 0.35
GKSKAAQFN | -0.318 ± 0.31
KVSYRMRASPRSKILVIRKS | 0.43 ± 0.72

Substance | amyloid nucleation score
WYKSYVITFITDTLVVDRET | 2.41 ± 0.16
VVLSIYTNITSCCDLLTSRR | 6.787 ± 0.047
IGYCSSGQNDPNIASLYCFH | -1.19 ± 0.81
GAGLYCR | 0.376 ± 0.52
YWRCCQVCRLRMDPQYFPDG | -0.358 ± 0.69
NLVFW | 0.562 ± 0.69
VWKDS | -0.285 ± 0.65
VRPMSDNSRVCVKSDNRSTG | -1.14 ± 0.93
YCTVVKFLHATFQFSNPLGM | 1.58 ± 0.48
VLVDKSDRVRGLS | -0.101 ± 0.3
TADFLERRDMKYLHM | -0.361 ± 1.7
LVKNHYHFMANLGCP | 0.133 ± 1.4
ELVSVGLSAIHSSDYNFSFN | 0.45 ± 0.7
SWRLRIIGEWRAFGDNMDSR | 2.75 ± 0.15
FNDHWSCRV | -0.095 ± 0.48
NDTLGSCLDNSLQSGSWWLR | 0.276 ± 0.39
SSLWTFTHRSKVGRYDFMAV | -1.51 ± 1.1
NLGIWPLYPYFFWLGQIWGD | 0.022 ± 0.77
VMSFILYLSMLCGARDSQRH | 2.89 ± 0.14
NLRFRRYTLVSGMQGNKIWH | -0.234 ± 0.48
DFGLYLNNFCNGMHSFDLFN | -0.378 ± 0.19
STWIHQMRSMASAENFSCYS | -1.27 ± 0.63
KGKECKRFLVNTKIGSNRT | inactive
DESFCVVLFFFLCCLWFCHL | 0.184 ± 0.7

— the supplement of paper PMC12042874
